Assay [1] concerns the target T1, CD28 (human, UniProt P10747 19-220). Kind of assay: flow cytometry, 11 nM Fc fusion on Jurkat cells. On the technique in general: In flow cytometry, cells or beads pass a laser one at a time.
Assay [2] concerns the target T2, CTLA-4 (human, UniProt P16410 36-223).
T2 construct: CHO cells transduced to stably express CTLA-4; also called huCTLA; CHO/CTLA-4
T2 sequence: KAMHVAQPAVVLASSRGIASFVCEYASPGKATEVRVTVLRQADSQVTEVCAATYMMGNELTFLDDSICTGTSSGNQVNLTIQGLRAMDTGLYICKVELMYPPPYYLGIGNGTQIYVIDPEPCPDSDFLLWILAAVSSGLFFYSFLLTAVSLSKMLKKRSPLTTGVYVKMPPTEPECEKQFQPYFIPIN
In words: flow cytometry, 11 nM Fc fusion on CHO/CTLA4 transfectants.

Assay [3] addresses T1, CD28. In words: flow cytometry, Jurkat cells expressing CD28, anti-Fc antibody-PE. The protocol: (§1) To assess binding activity, the exemplary formatted stack constructs were incubated with Jurkat cells expressing CD28, the cognate binding partner of CD86, and with K562 cells transduced to express PDL1, the cognate binding partner of PD-1. The cells (50,000 cells/well) were incubated on ice for 30 min with the formatted stack constructs set forth in Table E7 at various concentrations (starting concentration 100 nM, 8 serial 1:4 dilutions titrated down). Cells were then washed with FACS buffer and resuspended with 50 μL anti-Fc antibody-PE for 30 min. Binding was assessed by flow cytometry and Mean Fluorescence Intensity (MFI) was determined.

For another assay, the target named is T3, PD-L1 (human, UniProt Q9NZQ7 19-290).
T3 construct: also called huPD-L1
Kind of assay: flow cytometry, K562 cells transduced to express PDL1, anti-Fc antibody-PE. The protocol:
as §1

Assay [4] has as its target T1, CD28. In words: flow cytometry, 25 nM Fc fusion on Jurkat cells. Here is the method: (§2) Binding of the CD86 domain variants described above were assayed for binding to CD28 using Jurkat cells or to CTLA-4 using Chinese Hamster Ovary (CHO) cells that were transduced to stably express CTLA-4 (CHO/CTLA-4). For staining by flow cytometry, approximately 100,000 ligand-expressing cells were incubated with various concentrations of each candidate CD86 variant Fc fusion protein. […] To assess binding, cells were stained with an anti-human Fc secondary antibody (Jackson ImmunoResearch, USA), and samples were analyzed on an LSRII (BD Biosciences, Inc., USA) flow cytometer.
(§3) In the Table, the exemplary amino acid substitutions and insertions in the IgV domain are designated by amino acid position number corresponding to amino acid positions in the respective reference unmodified mature CD86 extracellular domain (ECD) sequence set forth in SEQ ID NO:29. The amino acid position is indicated in the middle, with the corresponding unmodified (e.g. wild-type) amino acid listed before the number and the identified variant amino acid substitution listed after the number. Column 2 sets forth the SEQ ID NO identifier for each variant IgV domain contained in the variant IgV-Fc fusion molecule.

Assay [5] has as its target T2, CTLA-4. Kind of assay: flow cytometry, 25 nM Fc fusion on CHO/CTLA4 transfectants. Here is the method:
as §2, §3

The target in assay [6] is T1, CD28. In words: cell-based or functional assay.

T3 sequence (Q9NZQ7 19-290): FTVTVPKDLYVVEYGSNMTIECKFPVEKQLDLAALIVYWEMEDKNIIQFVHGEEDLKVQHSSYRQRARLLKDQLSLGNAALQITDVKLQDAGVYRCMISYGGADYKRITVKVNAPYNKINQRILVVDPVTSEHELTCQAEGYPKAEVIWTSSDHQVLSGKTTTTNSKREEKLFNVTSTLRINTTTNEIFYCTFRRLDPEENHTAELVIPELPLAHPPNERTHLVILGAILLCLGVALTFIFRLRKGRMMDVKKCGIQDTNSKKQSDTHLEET
T1 sequence (P10747 19-220): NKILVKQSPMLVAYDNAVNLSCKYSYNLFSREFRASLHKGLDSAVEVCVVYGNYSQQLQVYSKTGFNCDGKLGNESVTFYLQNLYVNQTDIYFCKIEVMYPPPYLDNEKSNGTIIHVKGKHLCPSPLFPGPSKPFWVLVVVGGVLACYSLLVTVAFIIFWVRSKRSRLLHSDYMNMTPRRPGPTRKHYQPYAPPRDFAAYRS

Molecule “variant CD86 ECD-Fc Q25L/H90L/P185S/P224L (ECD SEQ ID NO: 116) (Fc fusion)” registered an MFI with CD28 [1] of 11.9. In the assay with CTLA-4 [2], this molecule registered a Fold Increase over WT CD86 ECD of 0.5 fold and an MFI of 9360.

B1: formatted PD-1-CD86 stack, FIG. 14C format (heterodimer SEQ ID NOs 328 + 330) (Fc fusion)
chain 1: DSPDRPWNPPTFSPALLVVTEGDNATFTCSFSNTSESFVLNWYRMSPSNQTDKLAAFPEDRNQPGQDRRFRVTQLPNGRDYHMSVDRARRNDSGTYLCGAITLAPKVQIDESLRVELRVTERGSGGGGSEPKSSDKTHTCPPCPAPEAEGAPSVFLFPPKPKDTLMISRTPEVTCVVVDVSHEDPEVKFNWYVDGVEVHNAKTKPREEQYNSTYRVVSVLTVLHQDWLNGKEYKCKVSNKALPAPIEKTISKAKGQPREPQVYTLPPCREEMTKNQVSLWCLVKGFYPSDIAVEWESNGQPENNYKTTPPVLDSDGSFFLYSKLTVDKSRWQQGNVFSCSVMHEALHNHYTQKSLSLSPG
chain 2: EPKSSDKTHTCPPCPAPEAEGAPSVFLFPPKPKDTLMISRTPEVTCVVVDVSHEDPEVKFNWYVDGVEVHNAKTKPREEQYNSTYRVVSVLTVLHQDWLNGKEYKCKVSNKALPAPIEKTISKAKGQPREPQVCTLPPSREEMTKNQVSLSCAVKGFYPSDIAVEWESNGQPENNYKTTPPVLDSDGSFFLVSKLTVDKSRWQQGNVFSCSVMHEALHNHYTQKSLSLSPGGGGGSGGGGSGGGGSGGGGSAPLKIQAYFNETADLPCQFANSQNLSLSELVVFWQDQENLVLNEVYLGKEKFDSVHSKYMGRTSFDSDSWTLRLHNLQIKDKGLYRCIILHKKPTGMIRIHQMSSELSVLA
notes: Knobs-into-hole heterodimer
Consider B1, for which the binding result with CD28 [3] and in the assay with PD-L1 was “binds” throughout.

B2: formatted PD-1-CD86 stack, FIG. 14A format, SEQ ID NO: 326 homodimer (Fc fusion)
chain: DSPDRPWNPPTFSPALLVVTEGDNATFTCSFSNTSESFVLNWYRMSPSNQTDKLAAFPEDRNQPGQDRRFRVTQLPNGRDYHMSVDRARRNDSGTYLCGAITLAPKVQIDESLRVELRVTERGSGGGGSEPKSSDKTHTCPPCPAPEAEGAPSVFLFPPKPKDTLMISRTPEVTCVVVDVSHEDPEVKFNWYVDGVEVHNAKTKPREEQYNSTYRVVSVLTVLHQDWLNGKEYKCKVSNKALPAPIEKTISKAKGQPREPQVYTLPPSRDELTKNQVSLTCLVKGFYPSDIAVEWESNGQPENNYKTTPPVLDSDGSFFLYSKLTVDKSRWQQGNVFSCSVMHEALHNHYTQKSLSLSPGGGGGSGGGGSGGGGSGGGGSAPLKIQAYFNETADLPCQFANSQNLSLSELVVFWQDQENLVLNEVYLGKEKFDSVHSKYMGRTSFDSDSWTLRLHNLQIKDKGLYRCIILHKKPTGMIRIHQMSSELSVLANFSQPEIVPISNITENVYINLTCSSIHGYPEPKKMSVLLRTKNSTIEYDGVMQKSQDNVTELYDVSISLSVSFPDVTSNMTIFCILETDKTRLLSSPFSIELEDPQPPPDHIP
notes: also called variant PD1 ECD - Fc - variant CD86 ECD
For the molecule B2, the binding result with CD28 [3] and with PD-L1 was “binds” in each case.

B3: variant CD86 IgV-Fc M60K/H90L (IgV SEQ ID NO: 128) (Fc fusion)
chain: APLKIQAYFNETADLPCQFANSQNQSLSELVVFWQDQENLVLNEVYLGKEKFDSVHSKYKGRTSFDSDSWTLRLHNLQIKDKGLYQCIILHKKPTGMIRIHQMNSELSVLAGSGGGGSEPKSSDKTHTCPPCPAPEAEGAPSVFLFPPKPKDTLMISRTPEVTCVVVDVSHEDPEVKFNWYVDGVEVHNAKTKPREEQYNSTYRVVSVLTVLHQDWLNGKEYKCKVSNKALPAPIEKTISKAKGQPREPQVYTLPPSRDELTKNQVSLTCLVKGFYPSDIAVEWESNGQPENNYKTTPPVLDSDGSFFLYSKLTVDKSRWQQGNVFSCSVMHEALHNHYTQKSLSLSPG
B3 returned an MFI with CD28 [4] of 20.

B4: variant CD86 IgV-Fc Q25L/Q86R/H90L (IgV SEQ ID NO: 126) (Fc fusion)
chain: APLKIQAYFNETADLPCQFANSQNLSLSELVVFWQDQENLVLNEVYLGKEKFDSVHSKYMGRTSFDSDSWTLRLHNLQIKDKGLYRCIILHKKPTGMIRIHQMNSELSVLAGSGGGGSEPKSSDKTHTCPPCPAPEAEGAPSVFLFPPKPKDTLMISRTPEVTCVVVDVSHEDPEVKFNWYVDGVEVHNAKTKPREEQYNSTYRVVSVLTVLHQDWLNGKEYKCKVSNKALPAPIEKTISKAKGQPREPQVYTLPPSRDELTKNQVSLTCLVKGFYPSDIAVEWESNGQPENNYKTTPPVLDSDGSFFLYSKLTVDKSRWQQGNVFSCSVMHEALHNHYTQKSLSLSPG
Turning to B4, in the assay with CTLA-4 [5], the “Fold Increase over WT CD86 ECD” value is 1.3 fold and the MFI is 4940. Moreover, in the assay with CD28 [4], the “Fold Increase over WT CD86 ECD” value came to 128 fold and the MFI was 1570. Further, in the assay with CD28 [6], the “Fold Increase over WT CD86 ECD, Jurkat/IL2 Luciferase Assay (10 nM OKT3 + 50 nM CD86 IgV-Fc)” value was determined as 6.1 fold and the “Relative luminescence units (RLU), Jurkat/IL2 Luciferase Assay (10 nM OKT3 + 50 nM CD86 IgV-Fc)” value is 800 RLU.

B5: formatted PD-1-CD86 stack, FIG. 14A format, SEQ ID NO: 327 homodimer (Fc fusion)
chain: DSPDRPWNPPTFSPALLVVTEGDNATFTCSFSNTSESFVLNWYRMSPSNQTDKLAAFPEDRNQPGQDRRFRVTQLPNGRDYHMSVDRARRNDSGTYLCGAITLAPKVQIDESLRVELRVTERGSGGGGSEPKSSDKTHTCPPCPAPEAEGAPSVFLFPPKPKDTLMISRTPEVTCVVVDVSHEDPEVKFNWYVDGVEVHNAKTKPREEQYNSTYRVVSVLTVLHQDWLNGKEYKCKVSNKALPAPIEKTISKAKGQPREPQVYTLPPSRDELTKNQVSLTCLVKGFYPSDIAVEWESNGQPENNYKTTPPVLDSDGSFFLYSKLTVDKSRWQQGNVFSCSVMHEALHNHYTQKSLSLSPGGGGGSGGGGSGGGGSGGGGSAPLKIQAYFNETADLPCQFANSQNLSLSELVVFWQDQENLVLNEVYLGKEKFDSVHSKYMGRTSFDSDSWTLRLHNLQIKDKGLYRCIILHKKPTGMIRIHQMSSELSVLA
notes: also called variant PD1 ECD - Fc - variant CD86 IgV
Take B5: the binding result with CD28 [3] and with PD-L1 was “binds” in each case.

B6: formatted PD-1-CD86 stack, FIG. 14D format (heterodimer SEQ ID NOs 328 + 331) (Fc fusion)
chain 1: DSPDRPWNPPTFSPALLVVTEGDNATFTCSFSNTSESFVLNWYRMSPSNQTDKLAAFPEDRNQPGQDRRFRVTQLPNGRDYHMSVDRARRNDSGTYLCGAITLAPKVQIDESLRVELRVTERGSGGGGSEPKSSDKTHTCPPCPAPEAEGAPSVFLFPPKPKDTLMISRTPEVTCVVVDVSHEDPEVKFNWYVDGVEVHNAKTKPREEQYNSTYRVVSVLTVLHQDWLNGKEYKCKVSNKALPAPIEKTISKAKGQPREPQVYTLPPCREEMTKNQVSLWCLVKGFYPSDIAVEWESNGQPENNYKTTPPVLDSDGSFFLYSKLTVDKSRWQQGNVFSCSVMHEALHNHYTQKSLSLSPG
chain 2: DSPDRPWNPPTFSPALLVVTEGDNATFTCSFSNTSESFVLNWYRMSPSNQTDKLAAFPEDRNQPGQDRRFRVTQLPNGRDYHMSVDRARRNDSGTYLCGAITLAPKVQIDESLRVELRVTERGSGGGGSEPKSSDKTHTCPPCPAPEAEGAPSVFLFPPKPKDTLMISRTPEVTCVVVDVSHEDPEVKFNWYVDGVEVHNAKTKPREEQYNSTYRVVSVLTVLHQDWLNGKEYKCKVSNKALPAPIEKTISKAKGQPREPQVCTLPPSREEMTKNQVSLSCAVKGFYPSDIAVEWESNGQPENNYKTTPPVLDSDGSFFLVSKLTVDKSRWQQGNVFSCSVMHEALHNHYTQKSLSLSPGGGGGSGGGGSGGGGSGGGGSAPLKIQAYFNETADLPCQFANSQNLSLSELVVFWQDQENLVLNEVYLGKEKFDSVHSKYMGRTSFDSDSWTLRLHNLQIKDKGLYRCIILHKKPTGMIRIHQMSSELSVLA
notes: Knobs-into-hole heterodimer
On to B6, for which the binding result with CD28 [3] and in the assay with PD-L1 was “binds” throughout.

The record behind these values is US20260193313A1 (ALPINE IMMUNE SCIENCES, published 2026).
